Results reported in US20090297524A1 (DOMANTIS, published 2009).
Substitutions are numbered along the chain they refer to.

T1: Recombinant human CD40L (human, UniProt P29965 108-261, limits assumed)
T1 construct: also called CD40 ligand
T1 sequence (looked up): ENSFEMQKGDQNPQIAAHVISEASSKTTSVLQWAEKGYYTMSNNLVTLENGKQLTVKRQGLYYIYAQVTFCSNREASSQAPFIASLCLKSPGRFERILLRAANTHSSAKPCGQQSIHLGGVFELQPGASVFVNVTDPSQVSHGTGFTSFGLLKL

B1: DOM.99 (other)
VH: EVQLLESGGGLVQPGGSLRLSCAASGFTFEDYAMSWVRQAPGKGLEWVSTITPGGFWTYYADSVKGRFTISRDNSKNTLYLQMNSLRAEDTAVYYCAKTSSGELQLVEDFDYWGQGTLVTVSS
notes: VH dAb
B2: DOM.123 (other)
VH: EVQLLESGGGLVQPGGSLRLSCAASGFTFIEYPMRWVRQAPGKGLEWVSLISPSGVFTYYADSVKGRFTISRDNSKNTLYLQMNSLRAEDTAVYYCAKGDESSTFDYWGQGTLVTVSS
notes: VH dAb
B3: DOM.135 (other)
VH: EVQLLESGGGLVQPGGSLRLSCAASGFTFRRYVMGWVRQAPGKGLEWVSWIEADGRTTYYADSVKGRFTISRDNSKNTLYLQMNSLRAEDTAVYYCAKGLTDQHVIEFDYWGQGTLVTVSS
notes: VH dAb
B4: DOM.126 (other)
VH: EVQLLESGGGLVQPGGSLRLSCAASGFTFANYSMSWVRQAPGKGLEWVSSIDRLGTHTYYADSVKGRFTISRDNSKNTLYLQMNSLRAEDTAVYYCAKVLADLIAGHAEFDYWGQGTLVTVSS
notes: VH dAb
B5: DOM.136 (other)
VH: EVQLLESGGGLVQPGGSLRLSCAASGFTFDGYRMGWVRQAPGKGLEWVSSIAPDGNYTYYADSVKGRFTISRDNSKNTLYLQMNSLRAEDTAVYYCAKFWGMQFDYWGQGTLVTVSS
notes: VH dAb
B6: DOM.100 (other)
VL: DIQMTQSPSSLSASVGDRVTITCRASQNIKHSLRWYQQKPGKAPRLLIYHRSQLQSGVPSRFSGSGSGTDFTLTISSLQPEDFATYYCQQVRHRPYTFGQGTKVEIKR
notes: Vk dAb
B7: DOM.102 (other)
VL: B6 VL with N28H, K30G, S32H, R45K, Q53H, F83S, V91W, R92D, H93R, R94P
notes: Vk dAb
B8: DOM.138 (other)
VH: EVQLLESGGGLVQPGGSLRLSCAASGFTFLAYWMVWVRQAPGKGLEWVSSISPSGTHTYYADSVKGRFTISRDNSKNTLYLQMNSLRVEDTAVYYCAKYTEPGLGSFDYWGQGTLVTVSS
notes: VH dAb
B9: DOM.133 (other)
VH: EVQLLESGGGLVQPGGSLRLSCAASGFTFIGYAMAWVRQAPGKGLEWVSSIGPLGATTYYADSVKGRFTISRDNSKNTLYLQMNSLRAEDTAVYYCAKLPAGTSSHSVDFDYWGQGTLVTVSS
notes: VH dAb
B10: DOM.125 (other)
VH: EVQLLESGGGLVQPGGSLRLSCAASGFTFWRYAMGWVRQAPGKGLEWVSTINDEGRETYYADSVKGRFTISRDNSKNTLYLQMNSLRAEDTAVYYCAKKRVSSSVNAPYEFDYWGQGTLVTVSS
notes: VH dAb
B11: DOM.124 (other)
VH: EVQLLESGGGLVQPGGSLRLSCAASGFTFKRYDMDWVRQAPGKGLEWVSTIGSSGYPTYYADSVKGRFTISRDNSKNTLYLQMNSLRAEDTAVYYCAERMPGYFPGFARQFDYWGQGTLVTVSS
notes: VH dAb
B12: DOM.132 (other)
VH: EVQLLESGGGLVQPGGSLRLSCAASGFTFADYDMAWVRQAPGKGLEWVSGIVDDGLMTYYADSVKGRFTISRDNSKNTLYLQMNSLRAEDTAVYYCAKPDVAFDYWGQGTLVTVSN
notes: VH dAb
B13: DOM.127 (other)
VH: EVQLLESGGGLVQPGGSLRLSCAASGFTFPSYDMAWVRQAPGKGLEWVSGISRSGSMTYYADSVKGRFTISRDNSKNTLYLQMNSLRAEDTAVYYCAKGVDAHVYYMEPFFDYWGQGTLVTVSS
notes: VH dAb
B14: DOM.121 (other)
VH: EVQLLESGGGLVQPGGSLRLSCAASGFTFELYRMSWVRQAPGKGLEWVSEISGSGFPTYYADSVKGRFTISRDNSKNTLYLQMNSLRAEDTAVYYCAKSLHDKTQHHQEFDYWGQGTLVTVSS
notes: VH dAb
B15: DOM8.111 (other)
VH: EVQLLESGGGLVQPGGSLRLSCAASGFTFERYPMTWVRQAPGKGLEWVSTIHGSGSATYYADSVKGRFTISRDNSKNTLYLQMNSLRAEDTAVYYCAKGPYTSRHNSLGHFDYWGQGTLVTVSS
notes: VH dAb
B16: DOM.115 (other)
VH: EVQLLESGGGLVQPGGSLRLSCAASGFSISYKNMAWVRQAPGKGLEWVSAIKAANGSTYYADSVKGRFTISRDNSKNTLYLQMNSLRAEDTAVYYCATGSQKKRTYTFDFWGQGTLVTVSS
B17: DOM.137 (other)
VH: EVQLLESGGGLVQPGGSLRLSCAASGFTFASYPMGWVRQAPGKGLEWVSSIGPIGFTTYYADSVKGRFTISRDNSKNTLYLQMNSLRAEDTAVYYCAEMKSPYKPQFDYWGQGTLVTVSS
notes: VH dAb
B18: DOM.120 (other)
VH: EVQLLESGGGLVQPGGSLRLSCAASGFTFRSYTMGWVRQAPGKGLEWVSSINPMGYQTYYADSVKGRFTISRDNSKNTLYLQMNSLRAEDTAVYYCAKHGVGKGTKPHNFDYWGQGTLVTVSS
notes: VH dAb
B19: DOM.114 (other)
VH: EVQLLESGGGLVQPGGSLRLSCAASGFRVSNYDLTWVRQAPGKGLEWVSTISATNGSTYYADSVKGRFTISRDNSKNTLYLQMNSLRAEDTAVYYCAAVTWWLLRHNDNLGFWGQGTLVTVSS
B20: DOM-84 (other)
VH: EVQLLESGGGLVQPGGSLRLSCAASGFTFRQYQMAWARQAPGKGLEWVSTIASDGVSTYYADSVKGRFTISRDNSKNTLYLQMNSLRAEDTAVYYCAKVGRDFDYWGQGTLVTVSS
notes: VH dAb
B21: DOM.180 (other)
VH: B20 VH with R30T, Q31D, Q33E, A35G, A37V, A52T, D54L, V56E, V99P, D102I
notes: VH dAb
B22: DOM.205 (other)
VH: B20 VH with R30A, Q31S, A37V, T50G, A52T, D54G, V56L, V99P, D102G
notes: VH dAb
B23: DOM.184 (other)
VH: EVQLLESGGGLVQPGGSLRLSCAASGFTFSDYEMMWVRQAPGKGLEWVSSITSHGGSTYYADSVKGRFTISRDNSKNTLYLQMNSLRAEDTAVYYCAKPDKDFDYWGQGTLVTVSS
notes: VH dAb
B24: DOM.178 (other)
VH: B12 VH with A30E, Y32F, G50S, V52N, D54Q, L56S, M57L, V101Q, A102F, N116S
notes: VH dAb
B25: DOM.208 (other)
VH: B23 VH with S30T, D31E, M35S, T52D, S53N, H54V, G56S, D100G, D102L
notes: VH dAb
B26: DOM.190 (other)
VH: EVQLLESGGGLVQPGGSLRLSCAASGFTFSMYDMHWVRQAPGKGLEWVSTILSDGTDTYYADSVKGRFTISRDNSKNTLYLQMNSLRAEDTAVYYCAKYGAMFDYWGQGTLVTVSS
notes: VH dAb
B27: DOM.196 (other)
VH: B23 VH with D31G, M35A, S53D, H54M, G56D, D100G, K101T, D102A, Q108P
notes: VH dAb
B28: DOM.131 (other)
VH: B23 VH with S30G, D31E, M35V, H54D, G56L, D100G, K101I, D102R
notes: VH dAb
B29: DOM.128 (other)
VH: B20 VH with R30E, Q31R, A37V, A52S, V56G, S57G, V99P, R101T, D102V
notes: VH dAb
B30: DOM.206 (other)
VH: B12 VH with D31S, D33E, A35T, V52S, D53S, M57S, D100G, A102L, N116S
notes: VH dAb
B31: DOM.129 (other)
VH: B23 VH with S30P, D31K, M35A, T52D, S53G, H54D, G56K, K101Q, D102F
notes: VH dAb
B32: DOM.134 (other)
VH: B23 VH with S30A, M35T, H54D, G56V, D100S, K101V, D102Q
notes: VH dAb
B33: DOM.130 (other)
VH: B23 VH with A23T, S30A, D31G, E33Q, M35S, S53N, H54E, G56V, D100G, D102Y
notes: VH dAb
B34: DOM.186 (other)
VH: EVQLLESGGGLVQPGGSLRLSCAASGLTFGRYEMAWVRQAPGKGLEWVSSIDSDGWVTYYADSVKGRFTISRDNSKNTLYLQMNSLRAEDTAVYYCAQPDSLFDYWGQGTLVTVSS
notes: VH dAb
B35: DOM.112 (other)
VH: EVQLLESGGGLVQPGGSLRLSCAASGFTFMDYPMGWVRQAPGKGLEWVSSIGPVGMSTYYADSVKGRFTISRDNSKNTLYLQMNSLRAEDTAVYYCAKYGGTSGRHNTKFDYWGQGTLVTVSS
notes: VH dAb
B36: DOM.113 (other)
VH: EVQLLESGGGLVQPGGSLRLSCAASGFTFTEYPMSWVRQAPGKGLEWVSVISPLGFTTYYADSVKGRFTISRDNSKNTLYLQMNSLRAEDTAVYYCAKWTGGSGILNSSFDYWGQGTLVTVSS
notes: VH dAb

Each binder was assayed against T1, Recombinant human CD40L (assay: CD40L/CD40-Fc receptor binding assay;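 note: plate assay with coated human CD40-Fc, bound ligand detected via HRP anti-biotin antibody and TMB, OD at 450 nm, lower signal indicates stronger inhibition by dAb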).

Binding result, binds:
B1
B2
B3
B4
B5
B6
B7
B8
B9
B10
B11
B12
B13
B14
B15
B16
B17
B18
B19
B20
B21
B22
B23
B24
B25
B26
B27
B28
B29
B30
B31
B32
B33
B34
B35
B36
